Target: human M3R-mCit (muscarinic M3 receptor, C-terminally mCitrine-labeled) (human) (UniProt P20309)
Assay: FRET or BRET; single permeabilized HEK293T cells (saponin), nucleotides washed out; FRET between M3R-mCitrine and mTurquoise2-Gγ2 of the co-expressed G protein; 10 µM acetylcholine for 1 min, 2 min washout, twice; final GTPγS to induce full dissociation; stability of the complex as AUC of the normalized trace after agonist withdrawal; room temperature, internal buffer pH 7.35

Sequence of UniProt P20309 (P20309 whole entry): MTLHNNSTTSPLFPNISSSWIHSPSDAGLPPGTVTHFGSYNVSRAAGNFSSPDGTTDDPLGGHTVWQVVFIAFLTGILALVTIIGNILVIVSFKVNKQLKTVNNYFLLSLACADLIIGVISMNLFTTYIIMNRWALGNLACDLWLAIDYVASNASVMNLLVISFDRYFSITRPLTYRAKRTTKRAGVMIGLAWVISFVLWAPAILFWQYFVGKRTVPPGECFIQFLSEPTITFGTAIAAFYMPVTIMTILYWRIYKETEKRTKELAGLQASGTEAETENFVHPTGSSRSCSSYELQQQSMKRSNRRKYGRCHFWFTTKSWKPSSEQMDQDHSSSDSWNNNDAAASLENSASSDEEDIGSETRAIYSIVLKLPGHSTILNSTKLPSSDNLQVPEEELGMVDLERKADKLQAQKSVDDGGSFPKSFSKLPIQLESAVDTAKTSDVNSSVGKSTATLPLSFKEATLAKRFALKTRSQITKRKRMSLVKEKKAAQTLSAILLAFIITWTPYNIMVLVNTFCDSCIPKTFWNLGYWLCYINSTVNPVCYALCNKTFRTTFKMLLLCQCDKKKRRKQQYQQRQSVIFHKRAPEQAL

reduction of the AUC of dissociation relative to Gq | faster dissociation relative to Gq | Substance
< 5% | – | GqoC11 (Gαq chimera with the C-terminal part of the α5 helix of Gαo, with Gβ1 and mTurq2-Gγ2) (from UniProt P21279 1-348; P59215 344-354; P62873 1-340; P63212 1-71) (complex)
– | < 10% | GqoN + C11 (Gαq chimera with the N-terminus and the last 11 amino acids of Gαo, with Gβ1 and mTurq2-Gγ2) (from UniProt P59215 344-354; P62873 1-340; P63212 1-71) (complex)

From publication PMC8160216
